Article PMC11166458, “Caskin2 is a novel talin- and Abi1-binding protein that promotes cell motility” (Journal of Cell Science, 2024)

Test system: Caskin2
Experiment: GFP-Trap pulldown of Caskin2 by GFP-tagged Abi1 constructs in COS-7 cells
Format: binding
Settings: western blot
Method: For transient expression, COS-7 cells were grown to 70% confluence in 10 cm culture dishes and transfected with plasmid DNAs using the DEAE–dextran method ([Schaapveld et al., 1998]). Briefly, 4.5 µg of plasmid DNA was mixed with 500 µg/ml DEAE–dextran in 2.5 ml PBS. Cells were washed two times with PBS and then incubated for 30 min at 37°C with the DEAE–dextran solution. Subsequently, 80 µM chloroquine was added to the cells in 10 ml DMEM with FCS and cells were incubated at 37°C for 3 h. After aspiration of the medium, the cells were treated with 3 ml of DMEM with FCS containing 10% DMSO for 2.5 min. The DMSO solution was then removed and replaced with fresh medium, after which the cells were further incubated for 48–72 h before analysis.
For analysis of protein in whole-cell lysates, cells were washed three times with cold PBS, lysed in Nonidet P-40 lysis buffer [20 mM Tris-HCl pH 7.5, 100 mM NaCl, 1% NP-40), supplemented with Na3VO4 (1.5 mM), NaF (15 mM), protease inhibitor cocktail (1:1000; Sigma-Aldrich) and phosphatase inhibitor cocktail 3 (1:100; Sigma-Aldrich)] and cleared by centrifugation at 14,000 g for 1 h at 4°C. […]
GFP-Trap pulldown experiments were performed as follows. Cleared lysates containing equal amounts of proteins, as determined by a Pierce™ BCA Protein Assay, were incubated with GFP-Trap agarose beads (Chromotek) in a rotation wheel for 6 h at 4°C. […]

B1: GFP–Abi1-DAWN: GFP-tagged Abi1 mutant harboring the mutations D453A and W455N (protein)
chain: MAELQMLLEEEIPSGKRALIESYQNLTRVADYCENNYIQATDKRKALEETKAYTTQSLASVAYQINALANNVLQLLDIQASQLRRMESSINHISQTVDIHKEKVARREIGILTTNKNTSRTHKIIAPANMERPVRYIRKPIDYTVLDDVGHGVKWLKAKHGNNQPARTGTLSRTNPPTQKPPSPPMSGRGTLGRNTPYKTLEPVKPPTVPNDYMTSPARLGSQHSPGRTASLNQRPRTHSGSSGGSGSRENSGSSSIGIPIAVPTPSPPTIGPAPGSAPGSQYGTMTRQISRHNSTTSSTSSGGYRRTPSVTAQFSAQPHVNGGPLYSQNSISIAPPPPPMPQLTPQIPLTGFVARVQENIADSPTPPPPPPPDDIPMFDDSPPPPPPPPVDYEDEEAAVVQYNDPYADGDPAWAPKNYIEKVVAIYDYTKDKDDELSFMEGAIIYVIKKNDAGNYEGVCNRVTGLFPGNYVESIMHYTD
modifications: left off: GFP, end not stated, kept
notes: GFP-tagged Abi1 mutant harboring the mutations D453A and W455N
B1 was tested, and the “Caskin2 precipitation by Abi1 construct” value was “unable to precipitate Caskin2”.
